B1: H7.HK4 (antibody, V domains shown)
VH: QVQLQESGPGLVKPSETLSLTCTVSGGSVRSASYAWSWIRQPPGKGLEWIGDIYYSGTTNYNPSLKSRVTLSVDTAKNRFSLRLRSVTAADTAVYHCARERYYYGSSGDFDYWGQGTLVTVSS
VL: DIQMTQSPSSLSASVGDRVTITCRASQGIRNYLAWFQQKPGQAPKSLIFAASSLHTGVPSRFSGSGSGTDFTLTISSLQPEDFATYYCQHYNSYPPTFGQGTKLEIK
notes: also called H7.HK4 mAb
B2: H7.HK2 (antibody, V domains shown)
VH: QVQLQGSGPGLLRPSETLSLTCSVSGVSINSYYWSWVRQPPGKALEWIGYIYYSGNTNYNPSLESRVTISVDRSKNQFSLKMTSVTAADTARYFCARQGIFGDYGSDYWGPGTLVTVSS
VL: DIVMTQSPLSLPVTPGEPASISCRSNQSLQHSNGYVHLDWYRQKPGQSPHLLIYLGFNRASGVPDRFSGGGSGTDFTLKISRVEAEDVGVYYCMQGLQTPFTFGPGTTVDLK
notes: also called H7.HK2 mAb; H7.HK2 human IgG1
B3: H7.HK1 (antibody, V domains shown)
VH: QVQLQESGPGLVKPSETLSLTCSVSGGSINSYYWTWIRQPPGKGLEWVGYIYHSGSTSYNPSLKSRITISVAPSKNHFSLELTSMTAADTAVYYCARLGGHGDYGSDYWGQGTLVTVSS
VL: DIVMTQSPVSLPVTPGEPASISCNSSQSLLHSNGYAHLDWYLQKPGQSPKLMIYLGLNRAFGVPDRFSGSGSGTDFTLKISRVEAEDVGVYYCMQALQTPFTFGPGTRVDIK
notes: also called H7.HK1 mAb; H7.HK1 human IgG1
B4: H7.HK3 (antibody, V domains shown)
VH: QVQLVQSGSELKRPGASVKVSCRASGYTFTSYTINWVRQAPGQGLEWMGWINTSTGDPTYAQGFTGRFVFSLDTSVSTAYLEISRLKAEDTAVYYCARAFGLTVVRGGIVGVWGQGTTVTVSS
VL: not shown
notes: also called H7.HK3 mAb

Legend:
Assay in all cases: ELISA
Conditions in all cases: both partners purified
[1] = molecular target: H7N9 HA1 based on A/Shanghai/2/2013 (Influenza A virus A/Shanghai/2/2013 …, UniProt R4NN21, strain)
[2] = molecular target: H7N9 HA (A/Shanghai/2/2013) pre-treated with Endoglycosidase H (Influenza A virus A/Shanghai/2/2013 …, UniProt R4NN21)
H15N8 HA = H15N8 HA (Influenza A virus H15N8, strain not …, UniProt Q82565, strain)
[3] = molecular target: T1, soluble recombinant H7N9 HA based on A/Shanghai/2/2013 (Influenza A virus A/Shanghai/2/2013 …, UniProt R4NN21)
T1 construct: source: bought: Immune Technologies, New York, NY

[4] = molecular target: T2, recombinant H7N7 HA based on A/Netherlands/219/2003 (Influenza A virus …, UniProt Q6VMK1)
T2 construct: source: bought: Immune Technologies, New York, NY

| Binder | binding result [1] | binding result [2] | binding result (H15N8 HA) | binding result [3] | binding result [4] |
| --- | --- | --- | --- | --- | --- |
| B1 | no binding | binds | binds | binds | binds |
| B2 | binds | binds | – | binds | binds |
| B3 | binds | binds | – | binds | binds |
| B4 | binds | binds | binds | binds | binds |

— article PMC10659534 (Research Square, 2023)
